Measurements published in patent US20190160152A1 (OPKO BIOLOGICS LTD., priority 2016, published 2019).
Entries after “also recorded” stand apart in the source; their conditions may differ. Read-outs that look alike come from different tables or passages of the source.

Key:
[1] = ob/ob mouse model Study 3: MOD-6031 vs PEG30-Fmoc-OXM vs PEG30-EMCS-OXM; assay type: in vivo, male ob/ob mice; conditions: for terminal plasma lipidic profiles and fructosamine (in words) / glucose profile, Day 30 OGTT (in words) / glucose tolerance, day 2 OGTT (in words): 6000 nmol/kg; for terminal plasma lipidic profiles and fructosamine (in words): day 33; for glucose profile, Day 30 OGTT (in words) / glucose tolerance, day 2 OGTT (in words): glucose 2 g/kg po
Experimental: Forty-two male ob/ob mice (7 weeks of age, Charles River, Italy) were acclimatized to the facility (10 days) followed by handling protocol whereby animals were handled as if to be dosed but were actually not weighed or dosed. Subsequently, animals underwent baseline period for 1 week in which each animal have been dosed twice by the subcutaneous route with PEG30-SH in volume of 20 ml/kg. Body weight, food and water intake were recorded daily, and samples were taken for non-fasting and fasting glucose measurements and non-fasting and fasting insulin measurements. Animals were subsequently allocated into three treatment, control and pair-fed groups (group A, N=10, groups B-E, N=8) based on plasma glucose, body weight and daily food and water intake. […] It was given the daily food ration equal to that eaten by its paired counterpart in group B the previous day. As such, animals in Group E will be one day out of phase with Group B in all study procedures and measurements. During the study, animals were dosed every four days (days: 1, 5, 9, 13, 17, 21, 25 and 29) as describes in table 3. […] Several procedures and sampling have been performed: non-fasting glucose on days 1, 6, 14, 22 and 29, fasting glucose on days 10, 18 and 26. On days 2 and 30 fasting glucose samples have been taken as part of an OGTT procedure, in which insulin was measured in parallel to glucose. Terminal samples on day 33 were analyzed for cholesterol, triglycerides and fructosamine.

[2] = Syringability analysis (Instron, glide force); assay type: physicochemical; conditions: 25 Ga Needle; 9 in/min (16 sec)
Experimental: Syringeability was tested using an Instron instrument, model 5942. […] […] For each needle size, two speed rates were measured: 4.8 in/min and 9 in/min, which correspond to injection speeds of 1 ml per 30 sec and 16 sec, respectively.
In one case, acceptance criteria for syringability was set at <10 N (glide force). The results of syringability for two different formulations of an acetate based buffer and using three different gauge needles is presented in Table 29 below.

[3] = biological target: T1, dipeptidyl peptidase IV (DPPIV) (Homo sapiens, UniProt P27487)
T1 sequence (P27487 whole entry, species assumed): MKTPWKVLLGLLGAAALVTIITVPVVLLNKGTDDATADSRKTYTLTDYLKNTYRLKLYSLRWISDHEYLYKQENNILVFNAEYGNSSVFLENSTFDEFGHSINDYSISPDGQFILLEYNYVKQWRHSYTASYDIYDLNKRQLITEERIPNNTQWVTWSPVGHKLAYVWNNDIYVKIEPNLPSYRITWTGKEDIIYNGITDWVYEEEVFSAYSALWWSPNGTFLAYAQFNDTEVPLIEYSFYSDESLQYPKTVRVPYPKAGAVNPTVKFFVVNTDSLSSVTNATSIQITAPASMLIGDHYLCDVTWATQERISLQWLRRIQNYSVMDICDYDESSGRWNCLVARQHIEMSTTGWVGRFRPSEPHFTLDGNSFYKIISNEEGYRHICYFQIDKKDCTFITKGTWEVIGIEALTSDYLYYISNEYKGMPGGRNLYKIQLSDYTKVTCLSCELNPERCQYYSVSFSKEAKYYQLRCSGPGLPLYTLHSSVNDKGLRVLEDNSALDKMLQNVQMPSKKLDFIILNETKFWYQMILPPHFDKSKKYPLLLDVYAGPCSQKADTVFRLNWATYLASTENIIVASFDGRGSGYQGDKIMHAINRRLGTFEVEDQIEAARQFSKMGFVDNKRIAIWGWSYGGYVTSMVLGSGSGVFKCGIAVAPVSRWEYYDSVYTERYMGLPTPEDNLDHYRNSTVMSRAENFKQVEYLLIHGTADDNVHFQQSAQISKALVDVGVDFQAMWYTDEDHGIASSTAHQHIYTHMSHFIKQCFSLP

[4] = ob/ob mouse model Study 2: chronic MOD-6031, OXM, liraglutide pharmacology; assay type: in vivo, male ob/ob mice
Experimental: Body weight, food and water intake were recorded daily. […] Body weight, food and water intake were measured daily.

[5] = Ex-vivo hydrolysis rate of MOD-6031 in human plasma; assay type: in vitro ADME
Experimental: (§1) After evaporation to dryness and reconstitution, the extracts were analysed by LC-MS/MS. […] Incubation at temperatures of 35° C., 37° C. and 41° C. was examined in rat plasma. […] For human plasma, both pooled and individual samples were measured using plasma derived from male and female subjects. […] The hydrolysis was stopped at the designated time point by freezing the sample at −70° C. […] For each condition, three independent samples were prepared. Samples were incubated at a given temperature of either 35° C., 37° C. or 41° C. All samples were stored at −70° C. prior to analysis. […] Temperature, wherein hydrolysis was tested at temperatures of 35° C., 37° C., and 41° C.; and • c. Plasma source, wherein hydrolysis was tested in plasma samples obtained from rat, cynomolgus monkeys and human. For human plasma, both pooled and individual samples were used, and hydrolysis rates were measured separately for plasma from males and females. […] At designated time points, samples were taken for LC-MS/MS analysis.

[6] = Ex-vivo hydrolysis rate of MOD-6031 in cynomolgus monkey plasma; assay type: in vitro ADME
Experimental: as §1

[7] = Viscosity analysis (Brookfield rheometer); assay type: physicochemical
Experimental: Viscosity was measured with a Brookfield rheometer (DV-III Ultra). For each formulation, viscosity was obtained from the average of five shear rate (Sec^−1) readouts (15.0, 30.0, 45.0, 60.0 and 75.0) at a controlled temperature of 25° C. Processing of the data was done using Rheocalc® software (Brookfield).
Conditions included concentration, buffer type, pH, and NaCl. Buffers were formed by interaction of base part of the buffer and the trifluoro acetic acid (TFA) that co-eluted with the […] (DS). […]

[8] = Hydrolysis rate of MOD-6031 in phosphate buffer at different pH; assay type: physicochemical
[9] = biological target: T1, dipeptidyl peptidase IV (DPPIV); assay: DPPIV digestion assay by RP-HPLC; conditions: pH = 6
[10] = ob/ob mouse model Study 1: PEG30-S-MAL-FMS-OXM variants at 2000 nmol/kg; assay type: in vivo, male ob/ob mice; conditions: 2000 nmol/kg sc; for final reduction of body weight (on day 18) compared to vehicle (PEG-SH) group: days 1, 5, 9, 13 and 16
Experimental: Terminal samples on day 19 were analyzed for cholesterol.

[11] = IP glucose tolerance test (IPGTT model); assay type: in vivo, C57BL/6 male mice; conditions: for AUC (0-180) / AUC (−60-180): blood glucose, 100 nmol/kg peptide content IP 15 min prior to glucose 1.5 gr/kg IP; for % AUC from control, AUC (0-180) / % AUC from control, AUC (−60-180): control PEG-SH, 100 nmol/kg peptide content IP
[12] = mouse, in vivo, sc
[13] = Ex-vivo hydrolysis rate of MOD-6031 in rat plasma; assay type: in vitro ADME
Experimental: as §1

[14] = 6000 nmol/kg sc every four days
[15] = Human female (pool) plasma 37° C.
[16] = Human male (pool) plasma 37° C.
[17] = Monkey (lot# CYN128421) plasma 37° C.
[18] = Monkey (lot# CYN128423) plasma 37° C.

PEG30-Fmoc-OXM (HSQGTFTSDYSKYLDSRRAQDFVQWLMNTKRNRNNIA; Oxyntomodulin PEG30 via Fmoc linker; UniProt P01275 53-89, looked up)
Final reduction changes in body weight (on day 33) compared to control (PEG-SH) [1, 14]: 5.1% | fasting glucose (in words) [1, 14]: significant improvement | reduction change in body weight compared to its pair-fed group ([1]; 6000 nmol/kg sc every four days, insignificant): 2.6% | terminal plasma lipidic profiles and fructosamine (in words) [1]: significant reduction | glucose profile, Day 30 OGTT (in words) [1]: significant improved glucose profile | glucose tolerance, day 2 OGTT (in words) [1]: significantly improved glucose tolerance

certolizumab pegol [Cimzia]
Break Loose Force [2]: 6.28 N | Glide Force [2]: 27.94 N

PEG30-EMCS-OXM: non-reversible form where N-(epsilon-Maleimidocaproyloxy)succinimide (EMCS) replaces Fmoc as linker
degradation by DPPIV (in words) [3]: no degradation of the conjugates was observed | Final reduction changes in body weight (on day 33) compared to control (PEG-SH) [1, 14]: 2.4%

MOD-6031
body weight reduction at the conclusion of the study (day 33) ([4]; 1000 nmol/kg sc twice a week): 5.2% | body weight reduction at the conclusion of the study (day 33) ([4]; 3000 nmol/kg sc twice a week): 12.3% | body weight and food consumption (in words) ([4]; 3000 nmoles/kg twice a week): significantly reduced | body weight reduction at the conclusion of the study (day 33) ([4]; 6000 nmol/kg sc twice a week): 28.3% | food intake and body weight (in words) ([4]; 6000 nmol/kg twice a week): significantly reduced | glucose tolerance, OGTT days 2 and 30 (in words) ([4]; 1000, 3000 and 6000 nmoles/kg, glucose 2 g/kg po): significantly and dose-dependently improved | terminal cholesterol (in words) ([4]; day 33): dose-dependently reduced | terminal glucose (in words) ([4]; study termination, day 33): dose-dependently reduced | terminal plasma insulin (in words) ([4]; study termination, day 33): markedly reduced | Cl/F_obs [5, 15]: 0.102 (mg)/(μg/ml)/h | MRT0-∞ [5, 15]: 9 h | Cl/F_obs ([5]; Human female A plasma 37° C.): 0.125 (mg)/(μg/ml)/h | MRT0-∞ ([5]; Human female A plasma 37° C.): 8 h | Cl/F_obs ([5]; Human female B plasma 37° C.): 0.136 (mg)/(μg/ml)/h | MRT0-∞ ([5]; Human female B plasma 37° C.): 9 h | Cl/F_obs ([5]; Human female C plasma 37° C.): 0.143 (mg)/(μg/ml)/h | MRT0-∞ ([5]; Human female C plasma 37° C.): 7 h | Cl/F_obs [5, 16]: 0.064 (mg)/(μg/ml)/h | MRT0-∞ [5, 16]: 14 h | Cl/F_obs ([5]; Human male A plasma 37° C.): 0.133 (mg)/(μg/ml)/h | MRT0-∞ ([5]; Human male A plasma 37° C.): 8 h | Cl/F_obs ([5]; Human male B plasma 37° C.): 0.148 (mg)/(μg/ml)/h | MRT0-∞ ([5]; Human male B plasma 37° C.): 7 h | Cl/F_obs ([5]; Human male C plasma 37° C.): 0.146 (mg)/(μg/ml)/h | MRT0-∞ ([5]; Human male C plasma 37° C.): 7 h | hydrolysis rate in different plasma types (in words) ([5]; rat, cynomolgus monkey and human plasma, 37° C.): comparable hydrolysis rate in most of the plasma samples; also recorded: very similar | Cl/F_obs [6, 17]: 0.172 (mg)/(μg/ml)/h | MRT0-∞ [6, 17]: 5 h | Cl/F_obs [6, 18]: 0.043 (mg)/(μg/ml)/h | MRT0-∞ [6, 18]: 15 h | Viscosity ([7]; 100 mM Acetate, 100 mM Sucrose, pH 4.7, 66 mg/ml): 20.41 cp | Viscosity ([7]; 100 mM Acetate, 100 mM Sucrose, pH 4.7, 72 mg/ml): 23.91 cp | Viscosity ([7]; 100 mM Acetate, 100 mM Sucrose, pH 4.7, 77 mg/ml): 26.08 cp | Viscosity ([7]; 100 mM Acetate, 100 mM Sucrose, pH 4.7, 80 mg/ml): 30.02 cp | Viscosity ([7]; 100 mM Acetate, 100 mM Sucrose, pH 4.7, concentration 60 mg/ml (A280)): 17.48 cp | Viscosity ([7]; T = 0, 50 mM Acetate pH 4.7, 60 mg/mL): 19.7 cP | Viscosity ([7]; T = 0, 50 mM Acetate pH 4.7, 70 mg/mL): 29.2 cP | Viscosity ([7]; T = 0, 50 mM Acetate pH 4.7, 80 mg/mL): 43.6 cP | Viscosity ([7]; T = 0, 50 mM Acetate pH 4.7, 100 mg/mL): 79.2 cP | Viscosity ([7]; T = 0, 50 mM Acetate pH 4.7, theoretical concentration 50 mg/mL): 12.9 cP | Viscosity ([7]; T = 0, 100 mM Acetate pH 4.7, 50 mg/mL): 12.9 cP | Viscosity ([7]; T = 0, 100 mM Acetate pH 4.7, 60 mg/mL): 20.8 cP | Viscosity ([7]; T = 0, 100 mM Acetate pH 4.7, 70 mg/mL): 32.9 cP | Viscosity ([7]; T = 0, 100 mM Acetate pH 4.7, 80 mg/mL): 48.7 cP | Viscosity ([7]; T = 0, 100 mM Acetate pH 4.7, 100 mg/mL): 87.4 cP | Viscosity ([7]; T = 24 hrs, 50 mM Acetate pH 4.7, 50 mg/mL): 12.2 cP | Viscosity ([7]; T = 24 hrs, 50 mM Acetate pH 4.7, 60 mg/mL): 19.4 cP | Viscosity ([7]; T = 24 hrs, 50 mM Acetate pH 4.7, 70 mg/mL): 28.3 cP | Viscosity ([7]; T = 24 hrs, 100 mM Acetate pH 4.7, 50 mg/mL): 12.8 cP | Viscosity ([7]; T = 24 hrs, 100 mM Acetate pH 4.7, 60 mg/mL): 20.4 cP | Viscosity ([7]; T = 24 hrs, 100 mM Acetate pH 4.7, 70 mg/mL): 32.5 cP | Cl/F_obs ([8]; Phosphate pH = 6.8): 0.061 (mg)/(μg/ml)/h | MRT0-∞ ([8]; Phosphate pH = 6.8): 47.4 h | Cl/F_obs ([8]; Phosphate pH = 7.4): 0.133 (mg)/(μg/ml)/h | MRT0-∞ ([8]; Phosphate pH = 7.4): 20.3 h | Cl/F_obs ([8]; Phosphate pH = 7.8): 0.227 (mg)/(μg/ml)/h | MRT0-∞ ([8]; Phosphate pH = 7.8): 10.7 h | degradation by DPPIV (in words) [9]: no degradation of OXM was observed | ability to reduce weight, inhibit food intake and improve glycemic control (in words) [10]: superior efficacies | non-fasting glucose (in words) [10]: improvement of non-fasting glucose | final reduction of body weight (on day 18) compared to vehicle (PEG-SH) group [10]: 4.9% | glucose tolerance (in words) ([11]; IPGTT, compared to vehicle PEG-SH): slightly less potent | AUC (0-180) [11]: 15781 | AUC (−60-180) [11]: 19891 | % AUC from control, AUC (0-180) [11]: 70.1% | % AUC from control, AUC (−60-180) [11]: 74.1% | Plasma concentration 24 hours following last injection of repeat dosing regimen (Day 33) ([12]; 1000 nmol/kg): 67.51 µg/mL | Plasma concentration 24 hours following single dose (Day 2) ([12]; 1000 nmol/kg): 51.57 µg/mL | Plasma concentration 24 hours following single dose (Day 2) ([12]; 3000 nmol/kg): 183.33 µg/mL | Plasma concentration 24 hours following last injection of repeat dosing regimen (Day 33) ([12]; 6000 nmol/kg): 493.60 µg/mL | Cl/F_obs ([13]; Table 10, Rat plasma 35° C.): 0.120 (mg)/(μg/ml)/h | MRT0-∞ ([13]; Table 10, Rat plasma 35° C.): 14.7 h | Cl/F_obs ([13]; Table 10, Rat plasma 37° C.): 0.129 (mg)/(μg/ml)/h | MRT0-∞ ([13]; Table 10, Rat plasma 37° C.): 14.7 h | Cl/F_obs ([13]; Table 10, Rat plasma 41° C.): 0.179 (mg)/(μg/ml)/h | MRT0-∞ ([13]; Table 10, Rat plasma 41° C.): 9.6 h | Cl/F_obs ([13]; Table 11, Rat plasma 37° C.): 0.056 (mg)/(μg/ml)/h | MRT0-∞ ([13]; Table 11, Rat plasma 37° C.): 13 h | hydrolysis rate, effect of temperature (in words) ([13]; rat plasma, 41° C. compared with 35° C. or 37° C.): incubation at 41 °C resulted in a higher hydrolysis rate | Final reduction changes in body weight (on day 33) compared to control (PEG-SH) [1, 14]: 25.4% | fasting glucose (in words) [1, 14]: significant improvement | non-fasting glucose (in words) [1, 14]: significant improvement | terminal plasma lipidic profiles and fructosamine (in words) [1]: significant reduction | glucose profile, Day 30 OGTT (in words) [1]: significant improved glucose profile | glucose tolerance, day 2 OGTT (in words) [1]: significantly improved glucose tolerance

MOD-6030: heterogeneous mixture of PEG-S-MAL-FMS-OXM conjugate composed of three variants (N-terminal, Lys12 and Lys30) (HSQGTFTSDYSKYLDSRRAQDFVQWLMNTKRNRNNIA; Oxyntomodulin PEG30-S-MAL-FMS, mixed N-term/Lys12/Lys30; UniProt P01275 53-89, looked up)
final reduction of body weight (on day 18) compared to vehicle (PEG-SH) group [10]: 4.7% | AUC (0-180) [11]: 13541 | AUC (−60-180) [11]: 18200 | % AUC from control, AUC (0-180) [11]: 60.1% | % AUC from control, AUC (−60-180) [11]: 67.8%
